Reference: the supplement of paper PMC9170038

Test system: K4 kissing-loop RNA reporter
Assay: apparent KD of K4 kissing-loop reporter; higher = weaker reporter binding
Details: Eterna round: R107
Protocol: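 RNA-MaP round R107: designed RNA switches with theophylline, tryptophan, arginine or FMN aptamers are transcribed on-chip within common flanks. They are titrated with a labelled K4 kissing-loop RNA reporter in RNA-MaP buffer (100 mM Tris pH 7.5, 80 mM KCl, 4 mM MgCl2), without ligand or with the indicated ligand. Median apparent KD per design.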

[1] = input ligand: theophylline 20 uM
[2] = input ligand: tryptophan 2.4 mM
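Also: bound reporter read as fluorescence of individual clusters on recovered sequencing chips by microscopy, with normalized cluster intensities fitted with a binding model.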

Sequence | apparent KD of K4 kissing-loop reporter (input ligand: FMN 200 uM) [nM] | apparent KD of K4 kissing-loop reporter (input ligand: arginine 13.2 mM) [nM] | apparent KD of K4 kissing-loop reporter (input ligand: none) [nM] | apparent KD of K4 kissing-loop reporter [1] [nM] | apparent KD of K4 kissing-loop reporter [2] [nM]
ACACGGGUCUCGGCCGCCACUCUGCCUACCACCAUUAGUGCCAGUGAUGUUGGCAGGUGAGGGCUGAGGACCGGGAGAUCCAUAC [Zaremais] | 140 | 124 | 136 | 122 | 107
UUCUACGAGUGAUGUUCGUAGUGUAAUAGUUAGGAUAUCGUUUUUUCGAGAAGGAACUUCGAAGUGAUACGAAAGUAUCGCUUCG [FMN A 11] | 122 | 117 | 126 | 132 | 136
UGUACCGAGUCAGGAUAUCAUAAUAAUCCAGUGAUGUUGGAAUAACCAGUACAAAAGUGCUGGCCUUGAGAAGGGACUUGGUACU [FmnBS 4 #SwitchBubble #StaticStem] | 179 | 140 | 177 | 157 | 147
CCAUCGCUAUUCGAUACCAGUCAAUAGGUCUUUGGCCUAUUAAUGGAGUGAUGUUCCUUAGACCCUUGGCAGCGAAUAGUGAUGG [Theophylline B K4 12] | 258 | 215 | 260 | 166 | 241
AUCUUGCAUUCGGCCGCCACUAUCGUGCAGUGAUGUUGCGCGAGUGACGCGUCCCGCAGUGCAGGUAGGACCGGGAAUGAUACCC [Erlazaar] | 128 | 119 | 123 | 112 | 125
UUUUACGAUACGGCCGCCACUGGUGUUAUAUAUUUGCAGGAGUGAUGUUCGUGCGAUCAUUCCAUCAGGACCGGGUAUACGCGGC [theeternabot_sameState_KL_Trp_B_43] | 265 | 209 | 318 | 765 | 507
AUGCGCGCGGCGGCCGCCACUCGCAUGAGAGUGAUGUUCUCGCCGUGACCGUAAGGUCGCGGUGUGAGGACCGGGCCGGGCUGCG [#2 Same State - Tryptophan B Attempt #22 (HarryS)] | 197 | 71.5 | 69.7 | 213 | 321
CCCUCACGAGUGAUGUUCGUAGGGUACAGUCAGGAUAUCAUGCGGUUGAGAAGGGACAGAGAGGGCGGCGGCGGGUUGCUCUUCG [Xeaan] | 155 | 190 | 242 | 271 | 222
UAGGUGCCGAACCAGUGAUGUUGGAGUCAUCGAGGACCGGUACGGCCGCCACUCGGCAGCGCCGGCGCGAUUAAUUGCGGAGACA [theeternabot_sameState_KL_Trp_A_7] | 689 | 390 | 596 | 470 | 698
CAUAUUUCGGCGGCCGCCACUGACCAUAGCCUUCGAUGGCCAGUGAUGUUGGCCUCUGGCUCUAACAGGACCGGGCCGAAUUGUG [Uslaxe] | 239 | 137 | 198 | 145 | 116
ACAUGCCCAGUGAUGUUGGAUAAAUAUGAAGGAGCGUGCGAAAGCACAGGUAGGUCGCAUAAUAGCAUGAGUCACGAAAGUGACA [#18 K4 Arginine A Same State] | 327 | 291 | 356 | 278 | 209
UGACUGGACUGAAGGAGCGCGAAACUCCUAGUGAUGUUAGGAAAACGAGACAAAGUCUCGACGCAGGUAGGUCGCAGUCUAGUCU | 125 | 102 | 103 | 115 | 135
AAGAGCUAGGCGGCCGCCACUAGAUGUGAACACAUACAAGCCAGUGAUGUUGGUAUGAUGGACAGUAGGACCGGGCCUAGCUGAA [Exclusion - Tryptophan B (Freestyle 9)] | 353 | 377 | 407 | 368 | 421
